Measurements from article PMC8282004.

Target: hACE2-K31N/K353H (human) (UniProt Q9BYF1)
Assay: flow cytometry on cells

recombinant SARS-CoV-2 spike RBD-Fc protein (from UniProt P0DTC2 319-524) (Fc fusion)
binding efficiency (percentage of GFP+ cells that bound RBD-Fc): 7.86%
